From article PMC7092852 (Biochemical and Biophysical Research Communications, 2005)

Molecular target: the molecule itself
Test: SEC

B1: 2-helix protein (native single chain NHR + CHR of syncytin, amino acids 349-445) (domain or fragment)
chain: not shown
- stoichiometry N: 3
